Data reported in PMC9482650, “Quantitative fragmentomics allow affinity mapping of interactomes” (Nature Communications, 2022).

Tests used:
Experiment in all cases: holdup assay
Parameters in all cases: key: below the threshold = too weak to quantify, mostly under pKd 3.1 to 4
Settings in all cases: plain residues with an end cap or a label only (N-terminal biotin on a linker: ado-ado)
MAGI2_3, Q86UL8 = biological target: MAGI2_3, Q86UL8
SNTG1, Q9NSN8 = biological target: T1, SNTG1, Q9NSN8
T1 sequence (Q9NSN8 52-150, limits assumed, looked up): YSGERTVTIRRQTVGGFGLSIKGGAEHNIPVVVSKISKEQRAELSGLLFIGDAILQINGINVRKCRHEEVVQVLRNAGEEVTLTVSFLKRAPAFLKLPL

Inadl_1, Q8NI35 = biological target: Inadl_1, Q8NI35
IL16_4, Q14005 = biological target: IL16_4, Q14005
NHERF4_2, Q86UT5 = biological target: NHERF4_2, Q86UT5
LIN7B, Q9HAP6 = biological target: T2, LIN7B, Q9HAP6
T2 sequence (Q9HAP6 88-185, limits assumed, looked up): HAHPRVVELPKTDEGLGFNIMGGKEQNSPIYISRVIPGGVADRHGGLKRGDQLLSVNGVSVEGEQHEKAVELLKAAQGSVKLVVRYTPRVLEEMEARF

TIAM2, Q8IVF5 = biological target: T3, TIAM2, Q8IVF5
T3 sequence (Q8IVF5 885-986, limits assumed, looked up): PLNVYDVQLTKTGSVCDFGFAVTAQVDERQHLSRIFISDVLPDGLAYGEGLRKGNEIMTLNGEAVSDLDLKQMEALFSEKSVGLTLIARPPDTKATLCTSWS

TX1BP3, O14907 = biological target: T4, TX1BP3, O14907
T4 sequence (O14907 10-122, limits assumed, looked up): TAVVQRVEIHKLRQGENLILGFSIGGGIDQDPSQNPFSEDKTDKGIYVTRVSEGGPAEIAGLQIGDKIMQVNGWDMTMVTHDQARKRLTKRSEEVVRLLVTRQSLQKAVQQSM

Inadl_6, Q8NI35 = biological target: Inadl_6, Q8NI35
HTRA2, O43464 = biological target: HTRA2, O43464
RAPGEF6, Q8TEU7 = biological target: T5, RAPGEF6, Q8TEU7
T5 sequence (Q8TEU7 525-625, limits assumed, looked up): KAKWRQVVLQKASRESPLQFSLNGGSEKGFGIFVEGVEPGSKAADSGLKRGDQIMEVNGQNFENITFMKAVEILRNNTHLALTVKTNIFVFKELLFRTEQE

FRMPD2_1, Q68DX3 = biological target: FRMPD2_1, Q68DX3
PDZD2_2, O15018 = biological target: T6, PDZD2_2, O15018
T6 sequence (O15018 329-429, limits assumed, looked up): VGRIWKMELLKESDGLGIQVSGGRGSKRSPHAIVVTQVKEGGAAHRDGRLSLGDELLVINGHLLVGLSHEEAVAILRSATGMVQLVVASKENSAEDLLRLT

Inadl_9, Q8NI35 = biological target: Inadl_9, Q8NI35
PDLIM1, O00151 = biological target: PDLIM1, O00151
TJP1_3, Q07157 = biological target: TJP1_3, Q07157
DLG4_3, P78352 = biological target: DLG4_3, P78352
SCRIB_3, Q14160 = biological target: SCRIB_3, Q14160
GRIP2_4, Q9C0E4 = biological target: GRIP2_4, Q9C0E4
TJP2_1, Q9UDY2 = biological target: TJP2_1, Q9UDY2
FRMPD2_2, Q68DX3 = biological target: FRMPD2_2, Q68DX3
DLG4_2, P78352 = biological target: DLG4_2, P78352
HTRA3, P83110 = biological target: T7, HTRA3, P83110
T7 sequence (P83110 354-453, limits assumed, looked up): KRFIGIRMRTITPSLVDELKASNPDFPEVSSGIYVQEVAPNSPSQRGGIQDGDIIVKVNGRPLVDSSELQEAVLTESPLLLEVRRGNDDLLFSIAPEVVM

DLG3_1, Q92796 = biological target: T8, DLG3_1, Q92796
T8 sequence (Q92796 125-227, limits assumed, looked up): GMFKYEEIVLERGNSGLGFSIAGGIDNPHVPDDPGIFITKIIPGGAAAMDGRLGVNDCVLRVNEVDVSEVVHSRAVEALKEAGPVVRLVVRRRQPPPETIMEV

LNX1_1, Q8TBB1 = biological target: LNX1_1, Q8TBB1
GOPC, Q9HD26 = biological target: GOPC, Q9HD26
PCLO, Q9Y6V0 = biological target: T9, PCLO, Q9Y6V0
T9 sequence (Q9Y6V0 4491-4600, limits assumed, looked up): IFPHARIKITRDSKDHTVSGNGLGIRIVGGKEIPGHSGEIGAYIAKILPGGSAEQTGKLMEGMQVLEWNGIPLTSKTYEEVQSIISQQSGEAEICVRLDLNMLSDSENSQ

LAP2, Q96RT1 = biological target: LAP2, Q96RT1
Sequence of LAP2, Q96RT1 (Q96RT1 other isoform, or with tags, fused parts or gaps): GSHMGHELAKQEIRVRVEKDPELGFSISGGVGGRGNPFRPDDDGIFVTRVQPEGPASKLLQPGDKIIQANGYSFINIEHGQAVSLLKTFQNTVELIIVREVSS

Sequence of GRIP2_4, Q9C0E4 (Q9C0E4 446-548): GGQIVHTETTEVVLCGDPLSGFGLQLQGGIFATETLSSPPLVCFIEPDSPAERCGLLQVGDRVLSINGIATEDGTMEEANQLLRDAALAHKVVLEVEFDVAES
Sequence of SCRIB_3, Q14160 (Q14160 999-1103): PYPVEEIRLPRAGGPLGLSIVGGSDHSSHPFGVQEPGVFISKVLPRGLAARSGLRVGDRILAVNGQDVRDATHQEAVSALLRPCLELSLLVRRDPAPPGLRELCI
Sequence of HTRA2, O43464 (O43464 355-458): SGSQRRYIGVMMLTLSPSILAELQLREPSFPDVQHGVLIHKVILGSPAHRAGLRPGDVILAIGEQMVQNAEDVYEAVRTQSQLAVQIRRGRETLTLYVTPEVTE
Sequence of MAGI2_3, Q86UL8 (Q86UL8 600-682): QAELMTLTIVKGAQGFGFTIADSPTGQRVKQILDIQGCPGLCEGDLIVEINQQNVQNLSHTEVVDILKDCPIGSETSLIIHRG
Sequence of DLG4_3, P78352 (P78352 306-403): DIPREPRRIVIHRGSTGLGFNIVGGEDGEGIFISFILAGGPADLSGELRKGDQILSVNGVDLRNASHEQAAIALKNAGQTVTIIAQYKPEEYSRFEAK
Sequence of FRMPD2_1, Q68DX3 (Q68DX3 770-861): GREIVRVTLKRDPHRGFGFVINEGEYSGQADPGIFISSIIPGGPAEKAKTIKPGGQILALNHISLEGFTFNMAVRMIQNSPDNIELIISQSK
Sequence of Inadl_9, Q8NI35 (Q8NI35 1530-1615): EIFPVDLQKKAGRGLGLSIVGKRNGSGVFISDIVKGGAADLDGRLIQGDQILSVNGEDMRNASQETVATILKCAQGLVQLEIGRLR
Sequence of Inadl_6, Q8NI35 (Q8NI35 1058-1167): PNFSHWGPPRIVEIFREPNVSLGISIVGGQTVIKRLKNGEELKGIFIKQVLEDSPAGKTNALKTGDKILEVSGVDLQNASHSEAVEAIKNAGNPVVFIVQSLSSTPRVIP
Sequence of TJP1_3, Q07157 (Q07157 416-512): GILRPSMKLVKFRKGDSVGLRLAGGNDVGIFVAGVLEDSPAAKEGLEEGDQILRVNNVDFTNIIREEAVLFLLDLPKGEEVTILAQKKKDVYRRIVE
Sequence of NHERF4_2, Q86UT5 (Q86UT5 220-308): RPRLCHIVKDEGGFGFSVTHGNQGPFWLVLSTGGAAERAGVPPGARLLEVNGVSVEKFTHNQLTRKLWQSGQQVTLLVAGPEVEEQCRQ
Sequence of IL16_4, Q14005 (Q14005 1229-1329): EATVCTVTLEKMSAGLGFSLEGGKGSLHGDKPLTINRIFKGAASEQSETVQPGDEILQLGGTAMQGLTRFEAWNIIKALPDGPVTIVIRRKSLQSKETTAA
Sequence of LNX1_1, Q8TBB1 (Q8TBB1 261-371): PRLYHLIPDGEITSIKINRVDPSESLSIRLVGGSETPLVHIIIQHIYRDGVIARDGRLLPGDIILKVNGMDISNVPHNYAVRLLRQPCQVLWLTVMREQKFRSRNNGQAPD
Sequence of DLG4_2, P78352 (P78352 155-259): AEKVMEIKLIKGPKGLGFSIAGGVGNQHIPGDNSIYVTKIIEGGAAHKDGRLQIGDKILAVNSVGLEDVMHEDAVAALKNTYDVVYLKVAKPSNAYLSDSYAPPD
Sequence of FRMPD2_2, Q68DX3 (Q68DX3 944-1038): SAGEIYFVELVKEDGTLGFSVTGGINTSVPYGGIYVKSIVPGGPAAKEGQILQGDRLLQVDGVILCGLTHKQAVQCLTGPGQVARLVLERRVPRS
Sequence of TJP2_1, Q9UDY2 (Q9UDY2 24-128): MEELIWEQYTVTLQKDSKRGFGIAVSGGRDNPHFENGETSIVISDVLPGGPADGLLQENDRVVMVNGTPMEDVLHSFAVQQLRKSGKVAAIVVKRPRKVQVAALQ
Sequence of PDLIM1, O00151 (O00151 1-87): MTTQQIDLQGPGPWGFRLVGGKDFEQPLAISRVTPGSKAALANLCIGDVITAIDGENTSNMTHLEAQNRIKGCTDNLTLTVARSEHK
Sequence of Inadl_1, Q8NI35 (Q8NI35 113-229): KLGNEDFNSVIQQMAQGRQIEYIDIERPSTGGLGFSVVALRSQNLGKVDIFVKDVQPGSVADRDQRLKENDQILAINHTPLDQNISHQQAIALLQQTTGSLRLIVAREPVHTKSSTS

Binder	pKd (MAGI2_3, Q86UL8)	pKd (SNTG1, Q9NSN8)	pKd (Inadl_1, Q8NI35)	pKd (IL16_4, Q14005)	pKd (NHERF4_2, Q86UT5)	pKd (LIN7B, Q9HAP6)	pKd (TIAM2, Q8IVF5)	pKd (TX1BP3, O14907)	pKd (Inadl_6, Q8NI35)	pKd (HTRA2, O43464)	pKd (RAPGEF6, Q8TEU7)	pKd (FRMPD2_1, Q68DX3)	pKd (PDZD2_2, O15018)	pKd (Inadl_9, Q8NI35)	pKd (PDLIM1, O00151)	pKd (TJP1_3, Q07157)	pKd (DLG4_3, P78352)	pKd (SCRIB_3, Q14160)	pKd (GRIP2_4, Q9C0E4)	pKd (TJP2_1, Q9UDY2)	other results
DDASLPVSDV [PLEKHA1, Q9HB21]	below the threshold	5.09	below the threshold	below the threshold	below the threshold	below the threshold	below the threshold	3.84	3.65	below the threshold	below the threshold	below the threshold	5.49	3.59	3.57	below the threshold	below the threshold	4.1	below the threshold	below the threshold	pKd (FRMPD2_2, Q68DX3): 4.87; pKd (DLG4_2, P78352): below the threshold; pKd (HTRA3, P83110): below the threshold; pKd (DLG3_1, Q92796): below the threshold; pKd (LNX1_1, Q8TBB1): 4.91; pKd (GOPC, Q9HD26): 4.25; pKd (PCLO, Q9Y6V0): below the threshold; pKd (LAP2, Q96RT1): 3.73
PPGKHLVTEV [KCNA7, Q96RP8]	4.22	4.35	below the threshold	below the threshold	below the threshold	3.97	4.01	4.67	3.56	below the threshold	3.52	below the threshold	4.62	below the threshold	below the threshold	below the threshold	4.16	4.56	below the threshold	3.6	pKd (FRMPD2_2, Q68DX3): 4.51; pKd (DLG4_2, P78352): 5.11; pKd (HTRA3, P83110): below the threshold; pKd (DLG3_1, Q92796): 4.21; pKd (LNX1_1, Q8TBB1): 4.22; pKd (GOPC, Q9HD26): 3.68; pKd (PCLO, Q9Y6V0): below the threshold; pKd (LAP2, Q96RT1): 4.39
